Kd data for 1 molecule are collected here from patent US20240255522A1 (published 2024).

The target of test [1] is HLA-DRB1*11:01 MHCII molecule (human). Briefly: saturation binding ELISA.
Test [2] deals with HLA-DRB1*09:01 MHCII molecule (human). In words: saturation binding ELISA.
The target in test [3] is HLA-DRB1*08:01 MHCII molecule (human). In words: saturation binding ELISA.
In test [4] the target is HLA-DRB1*15:01 MHCII molecule (human). Briefly: saturation binding ELISA.
For test [5], the target named is HLA-DRB1*01:01 MHCII molecule (human). Briefly: saturation binding ELISA.
The target in test [6] is HLA-DRB1*04:01 MHCII molecule (human). In words: saturation binding ELISA.
For test [7], the target named is HLA-DRB1*11:01 MHCII molecule (human). In words: saturation binding ELISA; pH 5.
Test [8] concerns the target HLA-DRB1*09:01 MHCII molecule (human). Briefly: saturation binding ELISA; pH 5.
Test [9] addresses HLA-DRB1*08:01 MHCII molecule (human). In words: saturation binding ELISA; pH 5.
Test [10] addresses HLA-DRB1*15:01 MHCII molecule (human). Briefly: saturation binding ELISA; pH 5.
Test [11] deals with HLA-DRB1*01:01 MHCII molecule (human). In words: saturation binding ELISA; pH 5.
Test [12] deals with HLA-DRB1*04:01 MHCII molecule (human). In words: saturation binding ELISA; pH 5.
Test [13] deals with HLA-DRB1*01:01 MHCII molecule (human). Briefly: saturation binding ELISA; pH 5; second sample.

Where no end group is shown, it is not given here.

With PVSKMRMATPLLMQA (also: biotinylated, position not given here) [biotinylated high affinity huCLIP], the Kd in test [1] was 24.5 nM; in [2] it was 510 nM; in test [3], 14.4 nM; in [4], 109 nM; in [5], 6.09 nM; in test [6], 183 nM. Also, the Kd in test [7] came out at 30.9 nM; in [8], 380 nM; in test [9] it was 16.8 nM; in test [10] it was 87.9 nM; in test [11], 7.1 nM; in [12], 200 nM. In test [13], this molecule gave a Kd of 8.7 nM.
